System: recombinant nucleosome

NSD2 E1099K mutant protein, purified (Example 7), sequence (chain, as listed by the source E1099K): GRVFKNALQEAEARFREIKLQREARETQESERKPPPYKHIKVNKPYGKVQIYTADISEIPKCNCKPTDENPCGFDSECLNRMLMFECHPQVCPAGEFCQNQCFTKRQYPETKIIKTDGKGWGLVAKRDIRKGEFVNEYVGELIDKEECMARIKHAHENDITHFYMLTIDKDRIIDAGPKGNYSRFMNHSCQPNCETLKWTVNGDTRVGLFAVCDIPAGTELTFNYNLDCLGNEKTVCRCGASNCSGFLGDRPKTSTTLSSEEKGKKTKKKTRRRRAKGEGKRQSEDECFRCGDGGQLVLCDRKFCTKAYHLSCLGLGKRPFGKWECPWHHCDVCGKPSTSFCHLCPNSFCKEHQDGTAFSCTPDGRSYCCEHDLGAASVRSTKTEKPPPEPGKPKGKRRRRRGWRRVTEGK
NSD2 E1087Q mutation (Example 7), sequence (chain, as listed by the source E1087Q): as the sequence (chain, as listed by the source E1099K) above, with E133Q, K145E counted along it

Substance	SAH production by LC/MS/MS in an enzymatic reaction with SAM and nucleosome (FIG. 9)
NSD2 E1087Q mutation (Example 7)	the NSD2 E1087Q mutation has less N-methyltransferase activity in each case
NSD2 E1099K mutant protein, purified (Example 7)	the NSD2 E1099K protein gains extra activity on recombinant nucleosome compared to NSD2 WT

Reference: patent publication US20150354006
